From US20190185898A1 (UNIVERSITY OF MARYLAND BALTIMORE COUNTY, published 2019)

Biological target: T1, core-fucosylated complex type glycoform of rituximab (30)
T1 construct: Obtained from 28 by AlfC E274A catalysed core fucosylation; also called fucosylated rituximab (30); core fucosylated antibody (30)
Experiment: ELISA, glycoprotein coated, AAL-biotin in serial dilution
Experimental: The glycoprotein (20, 21, 28 or 30) (10 μg/ml) in a phosphate buffer (pH 7.5) was coated onto a 96-well plate (UltraCruz®) at 4° C. for overnight. After wash twice, 2% bovine serum albumin in PBS containing Tween® 20 (PBST buffer) was added to block the plate for 2 h. Subsequently, after washed twice again, a serial dilution of AAL-biotin ranging from 0.1 μM to 1000 μM in PBST buffer was added and the plate was incubated for 1 h. After washing, peroxidase streptavidin (2 μg/mL) (Jackson ImmunoResearch Inc.) was added and incubated for 1 h. Finally, 100 μL of substrate, 3, 3′, 5, 5′-tetramethylbenzidine was added for signal development. The reaction was stopped by the adding 100 μL of 20% sulfuric acid (v/v). The absorbance at 450 nm was measured using SpectraMax M5 microplate reader (Molecular Devices). For the binding of the N-glycans, the Fmoc-labeled N-glycans released from 20, 21, 28 and 30 (1 μg/ml) were coated on the plate and the ELISA analysis was performed in the same manner as that of the glycoproteins.

B1: Aleuria aurantia lectin (AAL) (other, UniProt P18891 2-313, looked up)
chain: PTEFLYTSKIAAISWAATGGRQQRVYFQDLNGKIREAQRGGDNPWTGGSSQNVIGEAKLFSPLAAVTWKSAQGIQIRVYCVNKDNILSEFVYDGSKWITGQLGSVGVKVGSNSKLAALQWGGSESAPPNIRVYYQKSNGSGSSIHEYVWSGKWTAGASFGSTVPGTGIGATAIGPGRLRIYYQATDNKIREHCWDSNSWYVGGFSASASAGVSIAAISWGSTPNIRVYWQKGREELYEAAYGGSWNTPGQIKDASRPTPSLPDTFIAANSSGNIDISVFFQASGVSLQQWQWISGKGWSIGAVVPTGTPAGW
modifications: biotin label (AAL-biotin), site not stated
notes: Lectin that recognises the α1,6-fucosylated glycan; Added in serial dilution (0.1 µM to 1000 µM) to the coated glycoprotein; also called AAL-biotin
B1 was tested, and the EC50 was 15 µM and the “fold higher affinity than core-fucosylated RNase B (21)” value was ~17 fold.
